Test results published in the Human Domainome abundance scans (Beltran et al. 2025).
± gives the uncertainty stated by the source.

B1: Histone H1t, residues 44 to 112; numbered along this chain, P22492 (parent)
chain: VSKLITEALSVSQERVGMSLVALKKALAAAGYDVEKNNSRIKLSLKSLVNKGILVQTRGTGASGSFKLS

Variants of: B1
Assay: abundance fitness (aPCA) (normalised: wild type 0, dead -1); higher = more abundant; growth selection in yeast, the domain comes from the species named
Settings: Homo sapiens

Variant | abundance fitness
VSKLITEALSVSQERVGMSLVALKKALAAAGYDVEKNNDRIKLSLKSLVNKGILVQTRGTGASGSFKLS [S39D] | -0.013 ± 0.11
VSKLITEALSVSQERVGMSLVALKKALAAAGYDVEKNNERIKLSLKSLVNKGILVQTRGTGASGSFKLS [S39E] | 0.148 ± 0.052
VSKLITEALSVSQERVGMSLVALKKALAAAGYDVEKNNFRIKLSLKSLVNKGILVQTRGTGASGSFKLS [S39F] | -0.594 ± 0.067
VSKLITEALSVSQERVGMSLVALKKALAAAGYDVEKNNGRIKLSLKSLVNKGILVQTRGTGASGSFKLS [S39G] | -0.087 ± 0.044
VSKLITEALSVSQERVGMSLVALKKALAAAGYDVEKNNHRIKLSLKSLVNKGILVQTRGTGASGSFKLS [S39H] | -0.089 ± 0.085
VSKLITEALSVSQERVGMSLVALKKALAAAGYDVEKNNKRIKLSLKSLVNKGILVQTRGTGASGSFKLS [S39K] | -0.001 ± 0.045
VSKLITEALSVSQERVGMSLVALKKALAAAGYDVEKNNLRIKLSLKSLVNKGILVQTRGTGASGSFKLS [S39L] | -0.317 ± 0.028
VSKLITEALSVSQERVGMSLVALKKALAAAGYDVEKNNMRIKLSLKSLVNKGILVQTRGTGASGSFKLS [S39M] | -0.228 ± 0.045
VSKLITEALSVSQERVGMSLVALKKALAAAGYDVEKNNNRIKLSLKSLVNKGILVQTRGTGASGSFKLS [S39N] | 0.075 ± 0.15
VSKLITEALSVSQERVGMSLVALKKALAAAGYDVEKNNPRIKLSLKSLVNKGILVQTRGTGASGSFKLS [S39P] | -0.445 ± 0.045
VSKLITEALSVSQERVGMSLVALKKALAAAGYDVEKNNQRIKLSLKSLVNKGILVQTRGTGASGSFKLS [S39Q] | 0.075 ± 0.04
VSKLITEALSVSQERVGMSLVALKKALAAAGYDVEKNNRRIKLSLKSLVNKGILVQTRGTGASGSFKLS [S39R] | -0.327 ± 0.049
VSKLITEALSVSQERVGMSLVALKKALAAAGYDVEKNNVRIKLSLKSLVNKGILVQTRGTGASGSFKLS [S39V] | -0.539 ± 0.059
VSKLITEALSVSQERVGMSLVALKKALAAAGYDVEKNNWRIKLSLKSLVNKGILVQTRGTGASGSFKLS [S39W] | -0.472 ± 0.072
VSKLITEALSVSQERVGMSLVALKKALAAAGYDVEKNNYRIKLSLKSLVNKGILVQTRGTGASGSFKLS [S39Y] | -0.557 ± 0.23
VSKLITEALSVSQERVGMSLVALKKALAAAGYDVEKNNSAIKLSLKSLVNKGILVQTRGTGASGSFKLS [R40A] | 0.091 ± 0.035
VSKLITEALSVSQERVGMSLVALKKALAAAGYDVEKNNSEIKLSLKSLVNKGILVQTRGTGASGSFKLS [R40E] | -0.036 ± 0.056
VSKLITEALSVSQERVGMSLVALKKALAAAGYDVEKNNSGIKLSLKSLVNKGILVQTRGTGASGSFKLS [R40G] | -0.372 ± 0.037
VSKLITEALSVSQERVGMSLVALKKALAAAGYDVEKNNSHIKLSLKSLVNKGILVQTRGTGASGSFKLS [R40H] | -0.094 ± 0.072
VSKLITEALSVSQERVGMSLVALKKALAAAGYDVEKNNSKIKLSLKSLVNKGILVQTRGTGASGSFKLS [R40K] | 0.128 ± 0.031

Variant | abundance fitness
VSKLITEALSVSQERVGMSLVALKKALAAAGYDVEKNNSLIKLSLKSLVNKGILVQTRGTGASGSFKLS [R40L] | -0.097 ± 0.12
VSKLITEALSVSQERVGMSLVALKKALAAAGYDVEKNNSMIKLSLKSLVNKGILVQTRGTGASGSFKLS [R40M] | -0.215 ± 0.18
VSKLITEALSVSQERVGMSLVALKKALAAAGYDVEKNNSNIKLSLKSLVNKGILVQTRGTGASGSFKLS [R40N] | -0.165 ± 0.12
VSKLITEALSVSQERVGMSLVALKKALAAAGYDVEKNNSPIKLSLKSLVNKGILVQTRGTGASGSFKLS [R40P] | -0.444 ± 0.03
VSKLITEALSVSQERVGMSLVALKKALAAAGYDVEKNNSQIKLSLKSLVNKGILVQTRGTGASGSFKLS [R40Q] | 0.024 ± 0.028
VSKLITEALSVSQERVGMSLVALKKALAAAGYDVEKNNSSIKLSLKSLVNKGILVQTRGTGASGSFKLS [R40S] | -0.404 ± 0.12
VSKLITEALSVSQERVGMSLVALKKALAAAGYDVEKNNSTIKLSLKSLVNKGILVQTRGTGASGSFKLS [R40T] | -0.085 ± 0.03
VSKLITEALSVSQERVGMSLVALKKALAAAGYDVEKNNSVIKLSLKSLVNKGILVQTRGTGASGSFKLS [R40V] | -0.396 ± 0.21
VSKLITEALSVSQERVGMSLVALKKALAAAGYDVEKNNSRCKLSLKSLVNKGILVQTRGTGASGSFKLS [I41C] | -0.439 ± 0.054
VSKLITEALSVSQERVGMSLVALKKALAAAGYDVEKNNSRDKLSLKSLVNKGILVQTRGTGASGSFKLS [I41D] | -0.742 ± 0.13
VSKLITEALSVSQERVGMSLVALKKALAAAGYDVEKNNSREKLSLKSLVNKGILVQTRGTGASGSFKLS [I41E] | -0.813 ± 0.11
VSKLITEALSVSQERVGMSLVALKKALAAAGYDVEKNNSRFKLSLKSLVNKGILVQTRGTGASGSFKLS [I41F] | -0.055 ± 0.031
VSKLITEALSVSQERVGMSLVALKKALAAAGYDVEKNNSRGKLSLKSLVNKGILVQTRGTGASGSFKLS [I41G] | -0.405 ± 0.041
VSKLITEALSVSQERVGMSLVALKKALAAAGYDVEKNNSRHKLSLKSLVNKGILVQTRGTGASGSFKLS [I41H] | -0.444 ± 0.049
VSKLITEALSVSQERVGMSLVALKKALAAAGYDVEKNNSRLKLSLKSLVNKGILVQTRGTGASGSFKLS [I41L] | -0.124 ± 0.026
VSKLITEALSVSQERVGMSLVALKKALAAAGYDVEKNNSRMKLSLKSLVNKGILVQTRGTGASGSFKLS [I41M] | -0.191 ± 0.031
VSKLITEALSVSQERVGMSLVALKKALAAAGYDVEKNNSRNKLSLKSLVNKGILVQTRGTGASGSFKLS [I41N] | -0.542 ± 0.052
VSKLITEALSVSQERVGMSLVALKKALAAAGYDVEKNNSRPKLSLKSLVNKGILVQTRGTGASGSFKLS [I41P] | -0.394 ± 0.035
VSKLITEALSVSQERVGMSLVALKKALAAAGYDVEKNNSRQKLSLKSLVNKGILVQTRGTGASGSFKLS [I41Q] | -0.556 ± 0.049
